This note sets out measurements from patent publication US12103979B2, “N-acetylated and non-acetylated dipeptides containing arginine to reduce the viscosity of viscous compositions of therapeutic polypeptides” (AMGEN INC., priority 2017, dated 2024).

Series [1] in a line: Viscosity of therapeutic antibodies of Table 1 at exemplary concentration. Format: physicochemical. The conditions noted are these: at the Conc. (133.9-162.5 mg/ml).
Series [2] is described as follows: pI of therapeutic antibodies of Table 1. Format: physicochemical.

B1: Dkk1 (11H10): therapeutic antibody; IgG2, Kappa; LC SEQ ID NO 71, HC SEQ ID NO 72 (antibody, listed as Homo sapiens)
heavy: MDIRLSLAFLVLFIKGVQCEVQLVESGGGLVQPANSLKLSCAASGFTFSDYAMAWVRQSPKKGLEWVATIIYDGSSTYYRDSVKGRFTISRDNAKSTLYLQMDSLRSEDTATYYCATGLGIATDYFDYWGQGVLVTVSSAETTAPSVYPLAPGTALKSNSMVTLGCLVKGYFPEPVTVTWNSGALSSGVHTFPAVLQSGLYTLTSSVTVPSSTWPSQTVTCNVAHPASSTKVDKKIVPRNCGGDCKPCICTGSEVSSVFIFPPKPKDVLTITLTPKVTCVVVDISQDDPEVHFSWFVDDVEVHTAQTRPPEEQFNSTFRSVSELPILHQDWLNGRTFRCKVTSAAFPSPIEKTISKPEGRTQVPHVYTMSPTKEEMTQNEVSITCMVKGFYPPDIYVEWQMNGQPQENYKNTPPTMDTDGSYFLYSKLNVKKEKWQQGNTFTCSVLHEGLHNHHTEKSLSHSPGK
light: MGVPTHLLGLLLLWITHAICDIRMTQSPASLSASLGETVNIECLASEDIYSDLAWYQQKPGKSPQLLIYNANSLQNGVPSRFSGSGSGTQYSLKINSLQSEDVATYFCQQYNNYPPTFGGGTKLELKRADAAPTVSIFPPSTEQLATGGASVVCLMNNFYPRDISVKWKIDGTERRDGVLDSVTDQDSKDSTYSMSSTLSLTKADYESHNLYTCEVVHKTSSSPVVKSFNRNEC
For B1, the “Viscosity (cP)” value in series [1] was determined as 22.5 cP. Besides, the pl in series [2] is 8.2.

B2: Hepcidin: therapeutic antibody; IgG2, Lambda; LC SEQ ID NO 31, HC SEQ ID NO 32 (antibody, listed as Homo sapiens)
heavy: MEFGLSWVFLVALLRGVQCQVQLVESGGGVVQPGRSLRLSCAASGFTFSSYGMHWVRQAPGKGLEWVAVIWYAESNKYYADSVKGRFTISRDNSKNTLYLQMNSLRAEDTAVYYCARAQEGIAPDAFDIWGQGTMVTVSSASTKGPSVFPLAPCSRSTSESTAALGCLVKDYFPEPVTVSWNSGALTSGVHTFPAVLQSSGLYSLSSVVTVPSSNFGTQTYTCNVDHKPSNTKVDKTVERKCCVECPPCPAPPVAGPSVFLFPPKPKDTLMISRTPEVTCVVVDVSHEDPEVQFNWYVDGVEVHNAKTKPREEQFNSTFRVVSVLTVVHQDWLNGKEYKCKVSNKGLPAPIEKTISKTKGQPREPQVYTLPPSREEMTKNQVSLTCLVKGFYPSDIAVEWESNGQPENNYKTTPPMLDSDGSFFLYSKLTVDKSRWQQGNVFSCSVMHEALHNHYTQKSLSLSPGK
light: MDMRVPAQLLGLLLLWLRGARCYELTQPPSVSVSPGQTATITCSGDKLGERYASWYQQRPGQSPVLVIYQDIKRPSGIPERFSGSNSGNTATLTISGTQAMDEADYFCQAWYSSTNVLFGGGTKLTVLGQPKAAPSVTLFPPSSEELQANKATLVCLISDFYPGAVTVAWKADSSPVKAGVETTTPSKQSNNKYAASSYLSLTPEQWKSHRSYSCQVTHEGSTVEKTVAPTECS
On to B2, for which the “Viscosity (cP)” value in series [1] is 9.9 cP. Also, the pl in series [2] was determined as 7.3.

B3: Sclerostin (2B8): therapeutic antibody; IgG2, Lambda; LC SEQ ID NO 79, HC SEQ ID NO 80 (antibody, listed as Homo sapiens)
heavy: MEFGLSWVFLVALLRGVQCQVQLVESGGGVVQPGRSLRLSCAASGFTFSSYVMHWVRQAPGKGLEWVAVIWYDGSNKYYADSVKGRFTISRDNSKNTLYLQMNSLRAEDTAVYYCAREGYDYGEDYYYYGMDVWGQGTTVTVSSASTKGPSVFPLAPCSRSTSESTAALGCLVKDYFPEPVTVSWNSGALTSGVHTFPAVLQSSGLYSLSSVVTVPSSNFGTQTYTCNVDHKPSNTKVDKTVERKCCVECPPCPAPPVAGPSVFLFPPKPKDTLMISRTPEVTCVVVDVSHEDPEVQFNWYVDGVEVHNAKTKPREEQFNSTFRVVSVLTVVHQDWLNGKEYKCKVSNKGLPAPIEKTISKTKGQPREPQVYTLPPSREEMTKNQVSLTCLVKGFYPSDIAVEWESNGQPENNYKTTPPMLDSDGSFFLYSKLTVDKSRWQQGNVFSCSVMHEALHNHYTQKSLSLSPGK
light: MAWAPLLLTLLAHCTGSWANFMLTQPHSVSESPGKTVAISCTRNSGSIASNSVQWYQQRPGSSPTTVIFEDNQRPSGVPDRFSGSIDSSSNSASLTISGLKTEDEADYYCQSYDSNNWVFGGGTKLTVLGQPKANPTVTLFPPSSEELQANKATLVCLISDFYPGAVTVAWKADGSPVKAGVETTKPSKQSNNKYAASSYLSLTPEQWKSHRSYSCQVTHEGSTVEKTVAPTECS
In the case of B3, the “Viscosity (cP)” value in series [1] was 30.0 cP. This molecule yielded a pl in series [2] of 6.7.

B4: CGRP: therapeutic antibody; IgG2, Lambda; LC SEQ ID NO 29, HC SEQ ID NO 30 (antibody, listed as Homo sapiens)
heavy: MEFGLSWVFLVALLRGVQCQVQLVESGGGVVQPGRSLRLSCAASGFTFSSFGMHWVRQAPGKGLEWVAVISFDGSIKYSVDSVKGRFTISRDNSKNTLFLQMNSLRAEDTAVYYCARDRLNYYDSSGYYHYKYYGMAVWGQGTTVTVSSASTKGPSVFPLAPCSRSTSESTAALGCLVKDYFPEPVTVSWNSGALTSGVHTFPAVLQSSGLYSLSSVVTVPSSNFGTQTYTCNVDHKPSNTKVDKTVERKCCVECPPCPAPPVAGPSVFLFPPKPKDTLMISRTPEVTCVVVDVSHEDPEVQFNWYVDGVEVHNAKTKPREEQFNSTFRVVSVLTVVHQDWLNGKEYKCKVSNKGLPAPIEKTISKTKGQPREPQVYTLPPSREEMTKNQVSLTCLVKGFYPSDIAVEWESNGQPENNYKTTPPMLDSDGSFFLYSKLTVDKSRWQQGNVFSCSVMHEALHNHYTQKSLSLSPGK
light: MTCSPLLLTLLIHCTGSWAQSVLTQPPSVSAAPGQKVTISCSGSSSNIGNNYVSWYQQLPGTAPKLLIYDNNKRPSGIPDRFSGSKSGTSTTLGITGLQTGDEADYYCGTWDSRLSAVVFGGGTKLTVLGQPKANPTVTLFPPSSEELQANKATLVCLISDFYPGAVTVAWKADGSPVKAGVETTKPSKQSNNKYAASSYLSLTPEQWKSHRSYSCQVTHEGSTVEKTVAPTECS
As to B4, the “Viscosity (cP)” value in series [1] was 9.6 cP. The pl in series [2] turned out to be 8.8.

B5: PCSK9: therapeutic antibody; IgG2, Lambda; LC SEQ ID NO 73, HC SEQ ID NO 74 (antibody, listed as Homo sapiens)
heavy: MDWTWRILFLVAAATGVHSEVQLVQSGAEVKKPGASVKVSCKASGYTLTSYGISWVRQAPGQGLEWMGWVSFYNGNTNYAQKLQGRGTMTTDPSTSTAYMELRSLRSDDTAVYYCARGYGMDVWGQGTTVTVSSASTKGPSVFPLAPCSRSTSESTAALGCLVKDYFPEPVTVSWNSGALTSGVHTFPAVLQSSGLYSLSSVVTVPSSNFGTQTYTCNVDHKPSNTKVDKTVERKCCVECPPCPAPPVAGPSVFLFPPKPKDTLMISRTPEVTCVVVDVSHEDPEVQFNWYVDGVEVHNAKTKPREEQFNSTFRVVSVLTVVHQDWLNGKEYKCKVSNKGLPAPIEKTISKTKGQPREPQVYTLPPSREEMTKNQVSLTCLVKGFYPSDIAVEWESNGQPENNYKTTPPMLDSDGSFFLYSKLTVDKSRWQQGNVFSCSVMHEALHNHYTQKSLSLSPGK
light: MDMRVPAQLLGLLLLWLRGARCESALTQPASVSGSPGQSITISCTGTSSDVGGYNSVSWYQQHPGKAPKLMIYEVSNRPSGVSNRFSGSKSGNTASLTISGLQAEDEADYYCNSYTSTSMVFGGGTKLTVLGQPKAAPSVTLFPPSSEELQANKATLVCLISDFYPGAVTVAWKADSSPVKAGVETTTPSKQSNNKYAASSYLSLTPEQWKSHRSYSCQVTHEGSTVEKTVAPTECS
Molecule B5 returned a pl in series [2] of 8.1.

B6: TSLP: therapeutic antibody; IgG2, Lambda; LC SEQ ID NO 69, HC SEQ ID NO 70 (antibody, listed as Homo sapiens)
heavy: MGSTAILGLLLAVLQGGRAQMQLVESGGGVVQPGRSLRLSCAASGFTFRTYGMHWVRQAPGKGLEWVAVIWYDGSNKHYADSVKGRFTITRDNSKNTLNLQMNSLRAEDTAVYYCARAPQWELVHEAFDIWGQGTMVTVSSASTKGPSVFPLAPCSRSTSESTAALGCLVKDYFPEPVTVSWNSGALTSGVHTFPAVLQSSGLYSLSSVVTVPSSNFGTQTYTCNVDHKPSNTKVDKTVERKCCVECPPCPAPPVAGPSVFLFPPKPKDTLMISRTPEVTCVVVDVSHEDPEVQFNWYVDGVEVHNAKTKPREEQFNSTFRVVSVLTVVHQDWLNGKEYKCKVSNKGLPAPIEKTISKTKGQPREPQVYTLPPSREEMTKNQVSLTCLVKGFYPSDIAVEWESNGQPENNYKTTPPMLDSDGSFFLYSKLTVDKSRWQQGNVFSCSVMHEALHNHYTQKSLSLSPGK
light: MGSTAILGLLLAVLQGGRASYVLTQPPSVSVAPGQTARITCGGNNLGSKSVHWYQQKPGQAPVLVVYDDSDRPSWIPERFSGSNSGNTATLTISRGEAGDEADYYCQVWDSSSDHVVFGGGTKLTVLGQPKAAPSVTLFPPSSEELQANKATLVCLISDFYPGAVTVAWKADSSPVKAGVETTTPSKQSNNKYAASSYLSLTPEQWKSHRSYSCQVTHEGSTVEKTVAPTECS
B6: the “Viscosity (cP)” value in series [1] is 21.4 cP. The molecule further showed a pl in series [2] of 7.2.
